Data from the supplement of paper PMC10065799, “High-throughput profiling of sequence recognition by tyrosine kinases and SH2 domains using bacterial peptide display” (eLife, 2023).

molecular target: FGFR1 (UniProt P11362); assay: phosphorylation enrichment, bacterial display (enrichment ratio); higher = better substrate or ligand; peptides without Tyr show the background
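Further: 11-residue human phosphosite peptides and single-mutation variants displayed on the E. coli surface, counted by deep sequencing, each peptide's frequency after selection divided by its frequency in the unselected input library; frequency after pTyr selection over input frequency; kinase dosed for 20-30% of maximal phosphorylation in three min.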

Chain of FGFR1 (P11362 whole entry, looked up): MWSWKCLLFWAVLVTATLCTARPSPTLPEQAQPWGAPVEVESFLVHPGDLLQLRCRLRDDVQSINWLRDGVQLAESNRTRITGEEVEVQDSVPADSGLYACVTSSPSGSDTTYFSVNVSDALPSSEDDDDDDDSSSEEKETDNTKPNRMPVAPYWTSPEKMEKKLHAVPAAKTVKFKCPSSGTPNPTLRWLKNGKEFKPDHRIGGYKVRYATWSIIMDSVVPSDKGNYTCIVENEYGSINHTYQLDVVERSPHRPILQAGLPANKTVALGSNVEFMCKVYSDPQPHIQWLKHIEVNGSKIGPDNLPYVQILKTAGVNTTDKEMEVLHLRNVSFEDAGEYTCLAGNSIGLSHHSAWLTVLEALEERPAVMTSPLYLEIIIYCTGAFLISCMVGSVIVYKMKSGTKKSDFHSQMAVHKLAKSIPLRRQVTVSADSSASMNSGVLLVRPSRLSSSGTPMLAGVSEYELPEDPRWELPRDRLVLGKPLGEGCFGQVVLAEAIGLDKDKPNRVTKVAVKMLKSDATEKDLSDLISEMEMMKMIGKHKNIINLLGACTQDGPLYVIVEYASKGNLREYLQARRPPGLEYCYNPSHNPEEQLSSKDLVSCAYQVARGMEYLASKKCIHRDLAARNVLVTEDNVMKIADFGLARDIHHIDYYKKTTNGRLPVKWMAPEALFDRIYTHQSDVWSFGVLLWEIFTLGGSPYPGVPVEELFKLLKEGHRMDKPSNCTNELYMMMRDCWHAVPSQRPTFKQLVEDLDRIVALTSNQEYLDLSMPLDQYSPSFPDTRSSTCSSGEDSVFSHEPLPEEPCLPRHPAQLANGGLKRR

| Sequence | phosphorylation enrichment |
| --- | --- |
| VMVCAYLLHRG [PTEN_Y138_I135V] | 0.502 |
| QFFQGYFNNNF [ZNF236_Y644_S643G] | 0.643 |
| VIKDKYPQARY [APTX_Y209_K211Q] | 0.358 |
| VQDPAYLRDIN [OPRK1_Y369_D374N] | 0.415 |
| EWLRGYLENGK [HLA-C_Y195_R194G] | 0.481 |
| KQMEQYMSFHK [HCN1_Y417_V414M] | 0.408 |
| EWQQTYTYDSG [JUP_Y20] | 1.17 |
| HNLDFYKKTTN [FGFR3_Y648_YF] | 1.28 |
| GVRLFYRVMES [RB1_Y454_YF] | 0.488 |
| SVTCTYSPALN [TP53_Y126] | 0.517 |
| AEPPDYSPVTQ [ADGRG2_Y285_H290Q] | 0.514 |
| GKFRMYVAVWT [F13A1_Y161] | 0.479 |
| REDVFYTSKLW [AKR1C2_Y81_I79V] | 0.742 |
| TVETKYDNISR [SETDB2_Y477] | 0.545 |
| RKQQLYTAMEE [CCDC39_Y593] | 0.431 |
| EELLRYAIVTP [POC5_Y37_H36R] | 0.514 |
| PVDNLYAEPAV [PRPS1_Y146] | 0.61 |

| Sequence | phosphorylation enrichment |
| --- | --- |
| NQLNDYIFSFD [RARS1_Y516_R512Q] | 0.946 |
| FQKNIYSEEPR [LMNA_Y211_L215P] | 0.478 |
| KELALYDENWF [RPS19_Y48_P47L] | 0.729 |
| KRISCYEARFQ [PFKFB3_Y194_S197R_YF] | 0.344 |
| FSAPNYCFRCG [PPP2CA_Y265_YF] | 0.474 |
| ADVLDYIKALN [HPRT1_Y81_L78V] | 0.532 |
| EVTLTYATGTK [NFKB1_Y485] | 0.404 |
| FLAVGYHKPHI [IDS_Y225] | 0.408 |
| FADTAYNFRHG [PAH_Y166_I164T_YF] | 0.342 |
| VMTVDYSKTVV [SETD2_Y770] | 0.456 |
| SVKVYYKKCWF [EPHA7_Y202_S207F] | 0.432 |
| LIQRNYKLTAQ [ALPK2_Y1975_A1978T] | 0.465 |
| DVFVSYDFGKS [SORL1_Y139_YF] | 0.416 |
| AFRRGYFDEEM [PLEC_Y2971_YF] | 0.633 |
| IIRRLYLKWHP [SACS_Y4333] | 0.474 |
| SEPDLYCDPRG [PKP1_Y160] | 1.94 |

molecular target: EPHB2 (UniProt P29323); assay: as above
Sequence (P29323 whole entry, looked up): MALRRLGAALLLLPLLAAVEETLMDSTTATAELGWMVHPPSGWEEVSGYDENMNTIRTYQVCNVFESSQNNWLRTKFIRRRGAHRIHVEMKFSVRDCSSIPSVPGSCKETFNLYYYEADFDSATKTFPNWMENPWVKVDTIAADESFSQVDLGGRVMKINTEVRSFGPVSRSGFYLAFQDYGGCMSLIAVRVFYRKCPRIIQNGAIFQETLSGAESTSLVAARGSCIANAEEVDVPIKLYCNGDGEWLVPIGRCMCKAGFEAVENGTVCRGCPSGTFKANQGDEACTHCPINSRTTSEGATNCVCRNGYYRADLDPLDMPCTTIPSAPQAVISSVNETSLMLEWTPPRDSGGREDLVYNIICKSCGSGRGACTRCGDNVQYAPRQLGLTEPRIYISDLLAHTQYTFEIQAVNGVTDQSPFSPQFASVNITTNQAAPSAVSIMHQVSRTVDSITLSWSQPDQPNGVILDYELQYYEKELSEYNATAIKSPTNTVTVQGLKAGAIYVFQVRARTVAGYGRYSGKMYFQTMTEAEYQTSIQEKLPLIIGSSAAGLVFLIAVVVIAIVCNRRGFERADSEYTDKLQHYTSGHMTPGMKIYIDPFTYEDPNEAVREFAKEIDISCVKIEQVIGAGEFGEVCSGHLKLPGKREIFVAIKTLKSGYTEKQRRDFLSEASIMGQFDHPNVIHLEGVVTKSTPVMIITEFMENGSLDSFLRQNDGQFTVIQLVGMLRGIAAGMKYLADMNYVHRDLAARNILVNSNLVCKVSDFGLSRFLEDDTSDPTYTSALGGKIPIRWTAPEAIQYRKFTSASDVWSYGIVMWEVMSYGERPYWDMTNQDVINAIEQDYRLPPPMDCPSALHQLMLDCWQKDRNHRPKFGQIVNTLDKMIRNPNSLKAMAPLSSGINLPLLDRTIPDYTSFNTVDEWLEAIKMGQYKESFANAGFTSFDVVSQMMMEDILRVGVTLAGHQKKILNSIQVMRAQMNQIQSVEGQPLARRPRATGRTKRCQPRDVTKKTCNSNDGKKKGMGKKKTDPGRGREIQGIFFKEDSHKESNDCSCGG

| Sequence | phosphorylation enrichment |
| --- | --- |
| VMVCAYLLHRG [PTEN_Y138_I135V] | 0.538 |
| QFFQGYFNNNF [ZNF236_Y644_S643G] | 0.496 |
| VIKDKYPQARY [APTX_Y209_K211Q] | 0.394 |
| VQDPAYLRDIN [OPRK1_Y369_D374N] | 0.485 |
| EWLRGYLENGK [HLA-C_Y195_R194G] | 0.683 |
| KQMEQYMSFHK [HCN1_Y417_V414M] | 0.369 |
| EWQQTYTYDSG [JUP_Y20] | 0.585 |
| HNLDFYKKTTN [FGFR3_Y648_YF] | 2.13 |
| GVRLFYRVMES [RB1_Y454_YF] | 0.576 |
| SVTCTYSPALN [TP53_Y126] | 0.723 |
| AEPPDYSPVTQ [ADGRG2_Y285_H290Q] | 0.626 |
| GKFRMYVAVWT [F13A1_Y161] | 0.604 |
| REDVFYTSKLW [AKR1C2_Y81_I79V] | 0.631 |
| TVETKYDNISR [SETDB2_Y477] | 0.379 |
| RKQQLYTAMEE [CCDC39_Y593] | 0.534 |
| EELLRYAIVTP [POC5_Y37_H36R] | 0.637 |
| PVDNLYAEPAV [PRPS1_Y146] | 9.31 |

| Sequence | phosphorylation enrichment |
| --- | --- |
| NQLNDYIFSFD [RARS1_Y516_R512Q] | 0.549 |
| FQKNIYSEEPR [LMNA_Y211_L215P] | 0.443 |
| KELALYDENWF [RPS19_Y48_P47L] | 11.5 |
| KRISCYEARFQ [PFKFB3_Y194_S197R_YF] | 0.476 |
| FSAPNYCFRCG [PPP2CA_Y265_YF] | 0.448 |
| ADVLDYIKALN [HPRT1_Y81_L78V] | 0.534 |
| EVTLTYATGTK [NFKB1_Y485] | 0.526 |
| FLAVGYHKPHI [IDS_Y225] | 0.59 |
| FADTAYNFRHG [PAH_Y166_I164T_YF] | 0.386 |
| VMTVDYSKTVV [SETD2_Y770] | 0.417 |
| SVKVYYKKCWF [EPHA7_Y202_S207F] | 0.531 |
| LIQRNYKLTAQ [ALPK2_Y1975_A1978T] | 0.604 |
| DVFVSYDFGKS [SORL1_Y139_YF] | 0.595 |
| AFRRGYFDEEM [PLEC_Y2971_YF] | 0.616 |
| IIRRLYLKWHP [SACS_Y4333] | 0.543 |
| SEPDLYCDPRG [PKP1_Y160] | 3.01 |

molecular target: MERTK (UniProt Q12866); assay: as above
Sequence (Q12866 whole entry, looked up): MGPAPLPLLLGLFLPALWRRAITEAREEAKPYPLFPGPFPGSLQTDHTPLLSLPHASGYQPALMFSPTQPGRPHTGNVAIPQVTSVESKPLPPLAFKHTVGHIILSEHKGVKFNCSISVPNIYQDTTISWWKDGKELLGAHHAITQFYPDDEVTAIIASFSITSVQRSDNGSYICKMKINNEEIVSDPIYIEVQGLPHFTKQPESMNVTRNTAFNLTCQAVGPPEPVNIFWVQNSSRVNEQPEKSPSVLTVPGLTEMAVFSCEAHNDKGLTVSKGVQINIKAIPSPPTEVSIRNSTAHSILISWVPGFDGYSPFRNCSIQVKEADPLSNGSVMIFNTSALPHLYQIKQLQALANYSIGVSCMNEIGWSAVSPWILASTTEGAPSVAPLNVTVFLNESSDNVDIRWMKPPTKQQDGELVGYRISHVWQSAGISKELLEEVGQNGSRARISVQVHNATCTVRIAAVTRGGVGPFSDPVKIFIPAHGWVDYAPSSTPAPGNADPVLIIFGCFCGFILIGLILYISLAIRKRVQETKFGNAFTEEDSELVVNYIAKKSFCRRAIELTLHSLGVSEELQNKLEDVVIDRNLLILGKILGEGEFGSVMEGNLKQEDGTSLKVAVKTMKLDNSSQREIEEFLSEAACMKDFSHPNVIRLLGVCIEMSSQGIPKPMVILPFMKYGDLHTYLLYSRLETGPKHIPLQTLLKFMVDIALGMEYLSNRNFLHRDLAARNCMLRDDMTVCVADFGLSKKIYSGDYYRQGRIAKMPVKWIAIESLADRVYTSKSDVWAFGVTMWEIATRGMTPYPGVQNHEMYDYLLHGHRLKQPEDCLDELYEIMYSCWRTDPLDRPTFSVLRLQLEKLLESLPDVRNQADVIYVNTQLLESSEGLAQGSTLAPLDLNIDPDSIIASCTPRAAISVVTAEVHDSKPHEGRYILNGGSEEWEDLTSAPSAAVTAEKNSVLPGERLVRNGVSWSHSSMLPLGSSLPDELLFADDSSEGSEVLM

| Sequence | phosphorylation enrichment |
| --- | --- |
| VMVCAYLLHRG [PTEN_Y138_I135V] | 0.481 |
| QFFQGYFNNNF [ZNF236_Y644_S643G] | 0.58 |
| VIKDKYPQARY [APTX_Y209_K211Q] | 0.377 |
| VQDPAYLRDIN [OPRK1_Y369_D374N] | 0.333 |
| EWLRGYLENGK [HLA-C_Y195_R194G] | 0.394 |
| KQMEQYMSFHK [HCN1_Y417_V414M] | 0.419 |
| EWQQTYTYDSG [JUP_Y20] | 0.817 |
| HNLDFYKKTTN [FGFR3_Y648_YF] | 1.95 |
| GVRLFYRVMES [RB1_Y454_YF] | 0.381 |
| SVTCTYSPALN [TP53_Y126] | 0.456 |
| AEPPDYSPVTQ [ADGRG2_Y285_H290Q] | 0.342 |
| GKFRMYVAVWT [F13A1_Y161] | 0.357 |
| REDVFYTSKLW [AKR1C2_Y81_I79V] | 1.3 |
| TVETKYDNISR [SETDB2_Y477] | 0.393 |
| RKQQLYTAMEE [CCDC39_Y593] | 2.02 |
| EELLRYAIVTP [POC5_Y37_H36R] | 3.32 |
| PVDNLYAEPAV [PRPS1_Y146] | 6.34 |

| Sequence | phosphorylation enrichment |
| --- | --- |
| NQLNDYIFSFD [RARS1_Y516_R512Q] | 0.46 |
| FQKNIYSEEPR [LMNA_Y211_L215P] | 1.73 |
| KELALYDENWF [RPS19_Y48_P47L] | 7.19 |
| KRISCYEARFQ [PFKFB3_Y194_S197R_YF] | 0.395 |
| FSAPNYCFRCG [PPP2CA_Y265_YF] | 0.393 |
| ADVLDYIKALN [HPRT1_Y81_L78V] | 0.542 |
| EVTLTYATGTK [NFKB1_Y485] | 0.371 |
| FLAVGYHKPHI [IDS_Y225] | 0.368 |
| FADTAYNFRHG [PAH_Y166_I164T_YF] | 0.305 |
| VMTVDYSKTVV [SETD2_Y770] | 0.35 |
| SVKVYYKKCWF [EPHA7_Y202_S207F] | 0.356 |
| LIQRNYKLTAQ [ALPK2_Y1975_A1978T] | 0.567 |
| DVFVSYDFGKS [SORL1_Y139_YF] | 0.437 |
| AFRRGYFDEEM [PLEC_Y2971_YF] | 0.551 |
| IIRRLYLKWHP [SACS_Y4333] | 0.612 |
| SEPDLYCDPRG [PKP1_Y160] | 1.46 |

molecular target: Fes (UniProt P07332); assay: as above
Sequence (P07332 whole entry, looked up): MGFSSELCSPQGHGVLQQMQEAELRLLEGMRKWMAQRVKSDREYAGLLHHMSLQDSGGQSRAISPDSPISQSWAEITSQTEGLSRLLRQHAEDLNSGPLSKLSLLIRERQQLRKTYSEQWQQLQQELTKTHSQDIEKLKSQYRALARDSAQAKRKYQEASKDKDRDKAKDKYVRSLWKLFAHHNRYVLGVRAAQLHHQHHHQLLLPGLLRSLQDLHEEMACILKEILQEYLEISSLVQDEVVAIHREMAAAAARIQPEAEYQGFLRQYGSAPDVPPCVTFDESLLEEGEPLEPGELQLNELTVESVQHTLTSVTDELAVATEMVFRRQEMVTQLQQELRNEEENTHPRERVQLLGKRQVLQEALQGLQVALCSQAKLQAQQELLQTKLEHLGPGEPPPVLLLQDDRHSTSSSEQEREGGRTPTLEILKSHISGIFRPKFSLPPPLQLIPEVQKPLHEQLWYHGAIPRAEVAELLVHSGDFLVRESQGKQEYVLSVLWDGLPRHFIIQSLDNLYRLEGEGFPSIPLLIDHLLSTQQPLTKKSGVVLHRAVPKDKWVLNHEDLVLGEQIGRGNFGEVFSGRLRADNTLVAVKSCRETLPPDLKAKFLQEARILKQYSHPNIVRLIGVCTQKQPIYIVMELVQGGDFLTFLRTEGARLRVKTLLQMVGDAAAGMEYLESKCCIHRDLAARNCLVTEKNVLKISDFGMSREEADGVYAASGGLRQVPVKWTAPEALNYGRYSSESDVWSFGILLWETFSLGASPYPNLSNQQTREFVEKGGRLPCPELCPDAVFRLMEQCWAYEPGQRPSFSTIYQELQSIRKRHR

| Sequence | phosphorylation enrichment |
| --- | --- |
| VMVCAYLLHRG [PTEN_Y138_I135V] | 1.3 |
| QFFQGYFNNNF [ZNF236_Y644_S643G] | 1.2 |
| VIKDKYPQARY [APTX_Y209_K211Q] | 0.569 |
| VQDPAYLRDIN [OPRK1_Y369_D374N] | 0.974 |
| EWLRGYLENGK [HLA-C_Y195_R194G] | 0.921 |
| KQMEQYMSFHK [HCN1_Y417_V414M] | 0.573 |
| EWQQTYTYDSG [JUP_Y20] | 1.02 |
| HNLDFYKKTTN [FGFR3_Y648_YF] | 3.91 |
| GVRLFYRVMES [RB1_Y454_YF] | 1.42 |
| SVTCTYSPALN [TP53_Y126] | 1.72 |
| AEPPDYSPVTQ [ADGRG2_Y285_H290Q] | 1.16 |
| GKFRMYVAVWT [F13A1_Y161] | 1.1 |
| REDVFYTSKLW [AKR1C2_Y81_I79V] | 1.45 |
| TVETKYDNISR [SETDB2_Y477] | 0.745 |
| RKQQLYTAMEE [CCDC39_Y593] | 0.963 |
| EELLRYAIVTP [POC5_Y37_H36R] | 0.922 |
| PVDNLYAEPAV [PRPS1_Y146] | 1.31 |

| Sequence | phosphorylation enrichment |
| --- | --- |
| NQLNDYIFSFD [RARS1_Y516_R512Q] | 1.27 |
| FQKNIYSEEPR [LMNA_Y211_L215P] | 0.871 |
| KELALYDENWF [RPS19_Y48_P47L] | 1.43 |
| KRISCYEARFQ [PFKFB3_Y194_S197R_YF] | 0.845 |
| FSAPNYCFRCG [PPP2CA_Y265_YF] | 0.674 |
| ADVLDYIKALN [HPRT1_Y81_L78V] | 0.814 |
| EVTLTYATGTK [NFKB1_Y485] | 1.11 |
| FLAVGYHKPHI [IDS_Y225] | 0.799 |
| FADTAYNFRHG [PAH_Y166_I164T_YF] | 0.62 |
| VMTVDYSKTVV [SETD2_Y770] | 0.749 |
| SVKVYYKKCWF [EPHA7_Y202_S207F] | 1.14 |
| LIQRNYKLTAQ [ALPK2_Y1975_A1978T] | 1.12 |
| DVFVSYDFGKS [SORL1_Y139_YF] | 0.907 |
| AFRRGYFDEEM [PLEC_Y2971_YF] | 1.29 |
| IIRRLYLKWHP [SACS_Y4333] | 0.904 |
| SEPDLYCDPRG [PKP1_Y160] | 1.15 |
